How the values were obtained:
Assay in all cases: cell-based or functional assay
[1] = biological target: human CLDN3 N148A mutant on RKO KO cells (human) (UniProt O15551)
[2] = biological target: human CLDN3 P152A mutant on RKO KO cells (human) (UniProt O15551)
[3] = biological target: human CLDN3 R157A mutant on RKO KO cells (human) (UniProt O15551)
[4] = biological target: mouse CLDN3 with C-terminal monomeric GFP tag on RKO-KO cells (mouse) (UniProt Q9Z0G9)
[5] = biological target: human CLDN9 with C-terminal monomeric GFP tag on RKO-KO cells (human) (UniProt O95484)
human CLDN9 with C-terminal monomeric GFP tag on RKO-KO cells (human), sequence (O95484 whole entry): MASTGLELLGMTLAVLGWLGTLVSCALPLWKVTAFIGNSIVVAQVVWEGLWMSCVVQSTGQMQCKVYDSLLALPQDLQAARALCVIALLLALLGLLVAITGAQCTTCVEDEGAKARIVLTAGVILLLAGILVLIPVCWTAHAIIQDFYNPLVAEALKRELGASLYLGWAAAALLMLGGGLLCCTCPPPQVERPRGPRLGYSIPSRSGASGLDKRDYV

[6] = biological target: human CLDN3 with C-terminal monomeric GFP tag on RKO-KO cells (human) (UniProt O15551)
[7] = biological target: human CLDN3 F34A mutant on RKO KO cells (human) (UniProt O15551)
[8] = biological target: human CLDN3 I45A mutant on RKO KO cells (human) (UniProt O15551)
[9] = biological target: human CLDN3 Q155A mutant on RKO KO cells (human) (UniProt O15551)
[10] = biological target: T1, human CLDN3 E153A mutant on RKO KO cells (human, UniProt O15551 1-220)
T1 construct: Single-point alanine mutant, monoclonal RKO KO line with GFP
T1 chain: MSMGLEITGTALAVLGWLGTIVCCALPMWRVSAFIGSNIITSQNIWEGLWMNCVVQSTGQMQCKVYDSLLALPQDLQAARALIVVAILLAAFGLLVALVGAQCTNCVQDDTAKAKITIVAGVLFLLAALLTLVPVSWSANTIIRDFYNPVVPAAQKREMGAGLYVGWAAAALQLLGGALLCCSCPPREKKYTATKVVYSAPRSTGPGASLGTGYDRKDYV

[11] = biological target: human CLDN3 P149A mutant on RKO KO cells (human) (UniProt O15551)
[12] = biological target: human CLDN3 I39A mutant on RKO KO cells (human) (UniProt O15551)
[13] = biological target: human CLDN3 S42A mutant on RKO KO cells (human) (UniProt O15551)
[14] = biological target: T2, human CLDN3 N38A mutant on RKO KO cells (human, UniProt O15551 1-220)
T2 construct: Single-point alanine mutant, monoclonal RKO KO line with GFP
T2 chain: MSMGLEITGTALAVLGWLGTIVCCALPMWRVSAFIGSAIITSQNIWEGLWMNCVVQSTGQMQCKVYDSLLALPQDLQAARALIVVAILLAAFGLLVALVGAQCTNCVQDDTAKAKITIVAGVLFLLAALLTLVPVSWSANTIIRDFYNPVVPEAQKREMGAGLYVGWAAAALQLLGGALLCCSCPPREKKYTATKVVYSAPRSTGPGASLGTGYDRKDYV

[15] = biological target: human CLDN3 Q43A mutant on RKO KO cells (human) (UniProt O15551)
[16] = biological target: T3, human CLDN6 with C-terminal monomeric GFP tag on RKO-KO cells (human) (UniProt P56747)
T3 sequence (looked up): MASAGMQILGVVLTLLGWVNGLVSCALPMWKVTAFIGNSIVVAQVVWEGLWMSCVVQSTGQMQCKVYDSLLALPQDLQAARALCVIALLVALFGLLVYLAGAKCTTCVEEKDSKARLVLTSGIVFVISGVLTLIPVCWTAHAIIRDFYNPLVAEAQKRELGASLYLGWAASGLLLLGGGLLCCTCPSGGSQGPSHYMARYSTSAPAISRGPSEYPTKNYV

[17] = biological target: human CLDN3 V150A mutant on RKO KO cells (human) (UniProt O15551)
[18] = biological target: human CLDN4 with C-terminal monomeric GFP tag on RKO-KO cells (human) (UniProt O14493)
human CLDN4 with C-terminal monomeric GFP tag on RKO-KO cells (human), sequence (O14493 whole entry): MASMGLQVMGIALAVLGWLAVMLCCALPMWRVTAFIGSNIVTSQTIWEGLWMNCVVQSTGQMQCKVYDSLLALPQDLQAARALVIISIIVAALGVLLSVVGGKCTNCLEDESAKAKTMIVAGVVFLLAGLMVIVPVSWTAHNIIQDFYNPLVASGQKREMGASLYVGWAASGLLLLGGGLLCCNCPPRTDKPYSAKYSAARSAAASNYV

[19] = biological target: human CLDN3 K156A mutant on RKO KO cells (human) (UniProt O15551)

mouse CLDN3 with C-terminal monomeric GFP tag on RKO-KO cells (mouse), sequence (Q9Z0G9 whole entry): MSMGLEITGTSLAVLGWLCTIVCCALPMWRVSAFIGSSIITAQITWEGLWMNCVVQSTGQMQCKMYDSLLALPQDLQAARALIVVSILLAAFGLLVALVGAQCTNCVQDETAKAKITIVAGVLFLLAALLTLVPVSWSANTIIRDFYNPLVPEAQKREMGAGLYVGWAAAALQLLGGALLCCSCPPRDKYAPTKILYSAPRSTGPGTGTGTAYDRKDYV

B1: 906-009_LNGFR anti-claudin-3 chimeric antigen receptor (scFv orientation L-H, short hCD8 spacer), on T cells (protein, part only; not given: linker, spacer and signaling domains, not shown: large carriers)
chain, part: DIQMTQSPSSLSASVGDRVTITCKASQDINRYIAWYQQKPGKAPKLLIHYTSTLQPGVPSRFSGSGSGTDFTLTISSLQPEDFATYYCLQYETLYSFGQGTKLEIKQVQLVQSGAEVKKPGSSVKVSCKASGYTFTNYWVHWVRQAPGQGLEWMGRIEPNSSGSQYNEKFKNRVTITADKSTSTAYMELSSLRSEDTAVYYCARGVMVPLDYWGQGTLVTVSS
IFNγ as % of IFNγ in CLDN3 WT (24 h co-culture, normalised to untransduced T cells) [1]: 104% | IFNγ as % of IFNγ in CLDN3 WT (24 h co-culture, normalised to untransduced T cells) [2]: 61.6% | IFNγ as % of IFNγ in CLDN3 WT (24 h co-culture, normalised to untransduced T cells) [3]: 107% | % Live Cells at Assay Endpoint (40 hrs, donor 92024) [4]: 89% | % Live Cells at Assay Endpoint (70 hrs, donor D5) [4]: 97.7% | % Live Cells at Assay Endpoint (90 hrs, donor 0372470) [4]: 94.5% | % Live Cells at Assay Endpoint (96 hrs, donor C1700979) [4]: 71% | % Live Cells at Assay Endpoint (96 hrs, donor C1700980) [4]: 86% | % Live Cells at Assay Endpoint (120 hrs, donor 0372470) [4]: 81.7% | IFNγ secretion fold change, anti-claudin-3 CAR-T cells vs anti-CD19 CAR-T cells [4]: 439 fold | IFNγ secretion fold change, anti-claudin-3 CAR-T cells vs untransduced T cells [4]: 521 fold | % Live Cells at Assay Endpoint (40 hrs, donor 92024) [5]: 96.7% | % Live Cells at Assay Endpoint (70 hrs, donor D5) [5]: 96.3% | % Live Cells at Assay Endpoint (96 hrs, donor C1700979) [5]: 92.7% | % Live Cells at Assay Endpoint (96 hrs, donor C1700980) [5]: 101% | IFNγ secretion fold change, anti-claudin-3 CAR-T cells vs anti-CD19 CAR-T cells [5]: 14.3 fold | IFNγ secretion fold change, anti-claudin-3 CAR-T cells vs untransduced T cells [5]: 11.3 fold | % Live Cells at Assay Endpoint (40 hrs, donor 92024) [6]: 16.3% | % Live Cells at Assay Endpoint (70 hrs, donor D5) [6]: 0% | % Live Cells at Assay Endpoint (90 hrs, donor 0372470; RKO KO hCLDN3 L14) [6]: -6% | % Live Cells at Assay Endpoint (96 hrs, donor C1700979; RKO KO hCLDN3 L14) [6]: 29% | % Live Cells at Assay Endpoint (96 hrs, donor C1700980; RKO KO hCLDN3 L14) [6]: 57.3% | % Live Cells at Assay Endpoint (120 hrs, donor 0372470) [6]: 20.3% | IFNγ secretion fold change, anti-claudin-3 CAR-T cells vs anti-CD19 CAR-T cells [6]: 2500 fold | IFNγ secretion fold change, anti-claudin-3 CAR-T cells vs untransduced T cells [6]: 1350 fold | IFNγ as % of IFNγ in CLDN3 WT (24 h co-culture, normalised to untransduced T cells) [7]: 79.7% | IFNγ as % of IFNγ in CLDN3 WT (24 h co-culture, normalised to untransduced T cells) [8]: 66.1% | IFNγ as % of IFNγ in CLDN3 WT (24 h co-culture, normalised to untransduced T cells) [9]: 86.3% | IFNγ as % of IFNγ in CLDN3 WT (24 h co-culture, normalised to untransduced T cells) [10]: 3.56% | IFNγ as % of IFNγ in CLDN3 WT (24 h co-culture, normalised to untransduced T cells) [11]: 95.5% | IFNγ as % of IFNγ in CLDN3 WT (24 h co-culture, normalised to untransduced T cells) [12]: 71.5% | IFNγ as % of IFNγ in CLDN3 WT (24 h co-culture, normalised to untransduced T cells) [13]: 95.2% | IFNγ as % of IFNγ in CLDN3 WT (24 h co-culture, normalised to untransduced T cells) [14]: 0.11% | IFNγ as % of IFNγ in CLDN3 WT (24 h co-culture, normalised to untransduced T cells) [15]: 72.8% | % Live Cells at Assay Endpoint (40 hrs, donor 92024) [16]: 96.3% | % Live Cells at Assay Endpoint (96 hrs, donor C1700979) [16]: 96% | % Live Cells at Assay Endpoint (96 hrs, donor C1700980) [16]: 100% | IFNγ secretion fold change, anti-claudin-3 CAR-T cells vs anti-CD19 CAR-T cells [16]: 10.9 fold | IFNγ secretion fold change, anti-claudin-3 CAR-T cells vs untransduced T cells [16]: 2.59 fold | IFNγ as % of IFNγ in CLDN3 WT (24 h co-culture, normalised to untransduced T cells) [17]: 91.3% | % Live Cells at Assay Endpoint (90 hrs, donor 0372470) [18]: 94.7% | % Live Cells at Assay Endpoint (120 hrs, donor 0372470) [18]: 90.7% | IFNγ secretion fold change, anti-claudin-3 CAR-T cells vs anti-CD19 CAR-T cells [18]: 25.1 fold | IFNγ secretion fold change, anti-claudin-3 CAR-T cells vs untransduced T cells [18]: 29.2 fold | IFNγ as % of IFNγ in CLDN3 WT (24 h co-culture, normalised to untransduced T cells) [19]: 101%
